Laboratory results taken from patent US20230129258A1 (Bicycle, published 2023).
Numbering of substitutions follows the chain as printed. Starred links: 1 amine or outer side, 2 acyl side, 3 side chain; linkers in the order of their positions; H or OH if unused. Positions of bridges follow the written chain, without caps; N, C: chain ends. Non-standard residues stand in square brackets, D forms with d. Chains are numbered I, II in the order given. No end group written: not given here. dLys(PYA) = D-lysine Nε-acylated with 4-pentynoic acid, clicked (triazole) to the linker azide, O=C(CCc1cn([*:3])nn1)NCCCC[C@@H](N[*:1])C(=O)[*:2]; TATA = O=C(CC[*:1])N1CN(C(=O)CC[*:2])CN(C(=O)CC[*:3])C1; 1Nal = N[C@@H](Cc1cccc2ccccc12)C(=O)O; Hyp = O=C(O)[C@@H]1C[C@@H](O)CN1; hArg = N=C(N)NCCCC[C@H](N)C(=O)O; tBuAla = CC(C)(C)C[C@H](N)C(=O)O; Nle = CCCC[C@H](N)C(=O)O

Tests used:
[1] = biological target: T1, CD137 on Jurkat reporter cells (Promega kit CS196005) (UniProt Q07011 24-255, limits assumed); experiment: cell-based or functional assay
T1 sequence (Q07011 24-255 limits assumed): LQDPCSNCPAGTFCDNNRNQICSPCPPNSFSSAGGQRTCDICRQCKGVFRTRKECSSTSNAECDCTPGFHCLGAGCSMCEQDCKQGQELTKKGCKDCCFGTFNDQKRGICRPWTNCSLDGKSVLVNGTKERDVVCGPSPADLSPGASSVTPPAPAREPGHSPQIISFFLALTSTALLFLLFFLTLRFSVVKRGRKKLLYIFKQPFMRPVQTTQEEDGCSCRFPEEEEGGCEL

[2] = biological target: T1, CD137 on Jurkat reporter cells (Promega …); experiment: cell-based or functional assay; remark: listed apart in the source
[3] = biological target: T1, CD137 on Jurkat reporter cells (Promega …); experiment: cell-based or functional assay; remark: listed apart in the source
[4] = biological target: T2, human Nectin-4 extracellular domain (human, UniProt Q96NY8 32-349, biotinylated where captured on the streptavidin chip); experiment: SPR, one example sensorgram (FIG. 21A), immobilized Nectin-4
T2 construct: extracellular domain; also called Nectin-4 (human); Biotinylated - Nectin-4 extracellular domain
T2 sequence (looked up): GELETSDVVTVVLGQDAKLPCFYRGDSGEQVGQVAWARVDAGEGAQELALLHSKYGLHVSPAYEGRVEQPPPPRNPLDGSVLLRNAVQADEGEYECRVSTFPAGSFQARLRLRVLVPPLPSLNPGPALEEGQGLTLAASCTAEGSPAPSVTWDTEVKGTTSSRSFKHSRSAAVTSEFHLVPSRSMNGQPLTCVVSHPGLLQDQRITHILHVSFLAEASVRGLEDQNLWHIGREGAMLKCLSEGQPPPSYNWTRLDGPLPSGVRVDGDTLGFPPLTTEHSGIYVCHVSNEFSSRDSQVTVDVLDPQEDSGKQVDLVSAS

[5] = biological target: T2, human Nectin-4 extracellular domain; experiment: SPR direct binding, biotinylated Nectin-4 ECD on streptavidin chip, 25° C., n = 7
[6] = biological target: T3, cyno (NHP) Nectin-4 extracellular domain (cyno (NHP), UniProt A0A2K5WES1 32-349, biotinylated where captured on the streptavidin chip); experiment: SPR direct binding, biotinylated Nectin-4 ECD on streptavidin chip, 25° C., n = 9
T3 construct: extracellular domain
T3 sequence: T2 sequence (looked up) with V39A, I230V

[7] = biological target: T2, human Nectin-4 extracellular domain; experiment: SPR direct binding, biotinylated Nectin-4 ECD on streptavidin chip, 37° C., n = 9
[8] = biological target: T4, human CD137 extracellular domain (human, UniProt Q07011 24-186, biotinylated where captured on the streptavidin chip); experiment: SPR dual binding, BCY11863 captured on biotinylated human Nectin-4, soluble CD137 ECD passed over, n = 4
T4 construct: extracellular domain; Section 17 says only 'Recombinant human CD137 (R&D systems)'; also called CD137 (human); Recombinant human CD137 (R&D systems)
T4 sequence (Q07011 24-186): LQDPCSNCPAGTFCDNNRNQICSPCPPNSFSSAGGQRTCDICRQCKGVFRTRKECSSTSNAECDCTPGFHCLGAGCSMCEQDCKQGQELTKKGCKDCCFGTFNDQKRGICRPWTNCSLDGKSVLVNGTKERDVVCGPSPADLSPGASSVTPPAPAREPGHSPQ

[9] = biological target: T3, cyno (NHP) Nectin-4 extracellular domain; experiment: SPR sandwich assay, BCY11863 captured on biotinylated human CD137, soluble Nectin-4 ECD passed over, n = 3
[10] = biological target: T5, rat Nectin-4 extracellular domain (rat, UniProt D3ZET1 31-348, biotinylated where captured on the streptavidin chip); experiment: as above
T5 construct: extracellular domain
T5 sequence: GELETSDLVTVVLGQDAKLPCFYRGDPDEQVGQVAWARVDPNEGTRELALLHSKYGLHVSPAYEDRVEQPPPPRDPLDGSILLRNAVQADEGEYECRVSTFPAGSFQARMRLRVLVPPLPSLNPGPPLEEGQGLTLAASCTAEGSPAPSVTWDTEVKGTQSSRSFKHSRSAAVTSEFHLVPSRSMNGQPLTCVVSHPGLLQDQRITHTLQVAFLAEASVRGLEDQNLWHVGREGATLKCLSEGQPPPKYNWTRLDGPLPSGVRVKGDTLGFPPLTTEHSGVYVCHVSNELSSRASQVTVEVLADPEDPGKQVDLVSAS

[11] = biological target: T6, mouse Nectin-4 extracellular domain (mouse, UniProt Q8R007 31-347, biotinylated where captured on the streptavidin chip); experiment: as above
T6 construct: extracellular domain
T6 sequence (looked up): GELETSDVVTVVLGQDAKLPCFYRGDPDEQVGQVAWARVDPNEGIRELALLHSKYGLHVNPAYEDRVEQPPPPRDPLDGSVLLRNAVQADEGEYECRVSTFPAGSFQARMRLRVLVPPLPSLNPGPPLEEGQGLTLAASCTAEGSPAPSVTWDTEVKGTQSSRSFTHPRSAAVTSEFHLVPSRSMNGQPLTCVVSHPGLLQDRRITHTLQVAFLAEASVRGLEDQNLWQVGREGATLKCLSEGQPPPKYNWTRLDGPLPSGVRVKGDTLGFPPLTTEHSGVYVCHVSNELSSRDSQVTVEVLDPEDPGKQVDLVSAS

[12] = biological target: T2, human Nectin-4 extracellular domain; experiment: SPR sandwich assay, BCY11863 captured on biotinylated human CD137, soluble Nectin-4 ECD passed over, n = 4
[13] = biological target: T4, human CD137 extracellular domain; experiment: dual binding SPR: BCY11863 captured on immobilized human Nectin-4, soluble human CD137 as analyte, 1:1 fit [ctd) D]

B1: heterotandem bicyclic peptide complex BCY11863 (peptide)
peptide 1: CP[1Nal][dD]CM[hArg]DWSTP[Hyp]WC
peptide 2: Ac-C[tBuAla]PE[dLys(PYA)]PYCFADPY[Nle]CA
modifications: linker I:1-I:5-I:15, II:1-II:8-II:15 via TATA; not fully specified (bridges); also: 1:2 complex: BCY8116 + 2x BCY8928
notes: also called Nectin-4/CD137 heterotandem
For B1, the “EC50 (nM), NCI-H292 co-culture” value [1] was 0.168 nM, the “Fold Induction over Background, NCI-H292 co-culture” value [1] was 81 fold and the “Arithmetic mean EC50 (nM), CT26#7 co-culture” value [2] was 0.14 nM. The “Arithmetic mean EC50 (nM), HT1376 co-culture” value [2] was 0.52 nM, the “Arithmetic mean EC50 (nM), MC38#13 co-culture” value [2] was 0.31 nM and the “Arithmetic mean EC50 (nM), MDA-MB-468 co-culture” value [2] was 0.23 nM. For the same binder, the “Arithmetic mean EC50 (nM), NCI-H292 co-culture” value [2] was 0.28 nM, the “Arithmetic mean EC50 (nM), NCI-H322 co-culture” value [2] was 0.33 nM and the “Arithmetic mean EC50 (nM), T47D co-culture” value [2] was 0.42 nM. The “Fold improvement in EC50 over BCY10000 on same plate, NCI-H292” value [3] was 4.56 fold, the “Fold improvement in Emax over BCY10000 on same plate, NCI-H292” value [3] was 2.16 fold and the Kd [4] was 4.1 nM. The Kd [5] was 5 nM, the Kd [6] was 27 nM and the Kd [7] was 5.2 nM. It also gave a Kd [8] of 6.3 nM, a Kd [9] of 28 nM and a Kd [10] of 25 nM. It also gave a Kd [11] of 6.7 nM, a Kd [12] of 12 nM and a Kd [13] of 6.26 nM. For the same binder, the koff [13] was 0.00275 s⁻¹ and the kon [13] was 439000 M⁻¹ s⁻¹.
